In the supplement of paper PMC9170038:

Tested on: K4 kissing-loop RNA reporter
Experiment: apparent KD of K4 kissing-loop reporter; higher = weaker reporter binding
Conditions: Eterna round: R107
Description: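 RNA-MaP round R107: designed RNA switches with theophylline, tryptophan, arginine or FMN aptamers are transcribed on-chip within common flanks. They are titrated with a labelled K4 kissing-loop RNA reporter in RNA-MaP buffer (100 mM Tris pH 7.5, 80 mM KCl, 4 mM MgCl2), without ligand or with the indicated ligand. Median apparent KD per design.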

[1] = input ligand: theophylline 20 uM
[2] = input ligand: tryptophan 2.4 mM
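Note: bound reporter read as fluorescence of individual clusters on recovered sequencing chips by microscopy, with normalized cluster intensities fitted with a binding model.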

Row | Sequence | apparent KD of K4 kissing-loop reporter (input ligand: FMN 200 uM) | apparent KD of K4 kissing-loop reporter (input ligand: arginine 13.2 mM) | apparent KD of K4 kissing-loop reporter (input ligand: none) | apparent KD of K4 kissing-loop reporter [1] | apparent KD of K4 kissing-loop reporter [2]
1 | AUGCGUGAUGCUCAAAGAGUAUCACCCGAUACCAGUAUGGAAACAUACCCUUGGCAGCGGGUAACUGCCCAGUGAUGUUGGACGC [Theophylline A K4 10] | 286 nM | 160 nM | 242 nM | 288 nM | 234 nM
2 | AUGCUGUCGGCGUUAAAGUAGUAAUGUGAUACCAGAAAUGCUGUGUUCCCUUGGCAGCACAUUCUUACAGACAGUGAUGUUGUCU [theeternabot_exclusion_KL_Theo_A_8] | 414 nM | 315 nM | 391 nM | 390 nM | 336 nM
3 | AUGGUUGUCGUAGGAUAUGUAGGAUAUUCUAAAAUAUGAAGUGAUGUUUCUAUAAUAAGAAGAAGGACAGAAGGACGAUAACCAC [FmnBS 1 - SaraBot transfer #DoubleAptamer] | 90.4 nM | 104 nM | 114 nM | 89.3 nM | 108 nM
4 | AUGUACAUUCUCAGUGAUGUUGGGUUGUAACGAGGACCGGUACGGCCGCCACUCGGGAUGUGGUAUAUAGAUGUAUGUGUAGCAU [skye_SS_TA] | 612 nM | 271 nM | 446 nM | 512 nM | 439 nM
5 | AUGUCUUAUAAACUCAUGGUUUCGACAGAUACCAGCUUCGAGAGGAGCCCUUGGCAGCUGCAUGAGUGAUGUUCAUGUACGAAGA [KL-XTheoA6] | 370 nM | 336 nM | 516 nM | 315 nM | 301 nM
6 | AUUAAUAACAGAGGAUAUGCAUUAUUAUUAUUUUUAAAUAAUAAAUGCAGUGAUGUUGCAUAUUAAGCAGAAGGCUGAUUUAUUU [JR_SSFMNB_Sub011] | 137 nM | 516 nM | 484 nM | 439 nM | 353 nM
7 | AUUAUAAAGACGGCCGCCACUGAGAGUAGUGAUGUUACUCUUUUCCUUUAGAUAUUAUAUUUUAUCAGGACCGGGUUUUUUGAUU [JR_Nu_ExcTryptoB_Sub025] | 97.3 nM | 86.7 nM | 90.3 nM | 88.1 nM | 91.9 nM
8 | AUUAUAAAGUCGGCCGCCACUGAGAGUAGUGAUGUUACUCUAUUCCUUUAGAUAUUAUAUUUUAUCAGGACCGGGACAUCAGAUU [JR_ExcTryptoB_Sub019] | 332 nM | 341 nM | 317 nM | 290 nM | 228 nM
9 | AUUAUAAAGUCGGCCGCCACUGAGAGUAGUGAUGUUACUCUUUUCCUUUAGAUAUUAUAUUUUAUCAGGACCGGGACAUCAGAUU [JR_ExcTryptoB_Sub020] | 198 nM | 170 nM | 208 nM | 180 nM | 162 nM
10 | AUUCGUUUAUGUGAUACCAGACUUUGCAGUGAUGUUGCAUUAAUUAAAGAUGUUUAGUUUGUCCCUUGGCAGCACUAUUUAUUUA [JR_SSTheophyB_Sub002] | 43.1 nM | 84.4 nM | 49.6 nM | 83.3 nM | 38.9 nM
11 | AUUCGUUUAUGUGAUACCAGACUUUGCAGUGAUGUUGCAUUAAUUAUUGAUGAUUAGUUUGUCCCUUGGCAGCACUAUUUAUUUA [JR_SSTheophyB_Sub003] | 54.6 nM | 105 nM | 63.8 nM | 104 nM | 47.7 nM
12 | AUUCUGUUUUUGAUGUUUAUUGUAUAAUGGCAGGAUAUCGUAGAAGCGAGAAGGGCUUUUAUGCGUUAUGAGUGAUGUUUGUAGG [eyeefvmullin] | 373 nM | 260 nM | 284 nM | 319 nM | 256 nM
13 | AUUCUUUUUUUGAUGUUUUUUGUAUAAUGGCAGGAUAUCGUAGAAGCGAGAAGGGCUUUUAUGCGUUAUGAGUGAUGUUUGUAGG [szeewvmullin] | 254 nM | 262 nM | 261 nM | 340 nM | 205 nM
14 | AUUUAUGUUUCGGCCGCCACUCCACGUACUCAGAGAGAGUGAUGUUCUUUUUAUUAACGUCUAUGGAGGACCGGGAAGAGGUGAG [theeternabot_exclusion_KL_Trp_B_37] | 672 nM | 640 nM | 930 nM | 931 nM | 536 nM
15 | AUUUGUUUAUGUGAUACCAGACUUUGCAGUGAUGUUGCUUUUAUUUUUGAAUUUUAAAUAGUCCCUUGGCAGCACUAUGUAUUUA [JR_SSTheophyB_Sub009] | 65.5 nM | 132 nM | 82.8 nM | 137 nM | 60.6 nM
16 | AUUUUGGUUUAGAGUGAUGUUCCUUGUGUUCGAGGACCGGUACGGCCGCCACUCGGGUAGAAAAGAAAAGAAAUGUUUGAUUUUU [BDazzled - #10 SS Tryptophan A] | 251 nM | 105 nM | 548 nM | 92.8 nM | 123 nM
17 | CAGACAUGCGGUAGGUUCAAGCGCUGGGAAGGAGCGCAGAUGACUGCAGGUAGGUCGCCCAGUGAUGUUGGGCUUUCCACCUAUG [Onbeenbi] | 110 nM | 122 nM | 120 nM | 150 nM | 107 nM
18 | CAUAAAAGGUGGAAGACGAAUCGGUGUCGCCGAGGACCGGUACGGCCGCCACUCGGUCAUCAAAUCCUUCCCGAGUGAUGUUCGA [theeternabot_sameState_KL_Trp_A_5] | 382 nM | 439 nM | 501 nM | 444 nM | 258 nM
19 | CAUACCCAGUGAUGUUGGGUCGGUACCGAUACCAGUCGUACAGCCGACCCUUGGCAGCGGUAGCAUUGCCCGGCGUCGGCUUGUG [theeternabot_exclusion_KL_Theo_A_17] | 767 nM | 581 nM | 625 nM | 445 nM | 381 nM
20 | CAUACGCAUGGAGGAUAUGAGAUUACUCAUAUCAUUUAAUAUUCUCAGUGAUGUUGAGAUUUAGACUCAGAAGGCCAUGUGUAUG [Ex FMN B 13] | 302 nM | 310 nM | 350 nM | 357 nM | 317 nM
21 | CAUACGCAUGGAGGAUAUGAGAUUUCUCAUAUUAUUUAAUAUUCUCAGUGAUGUUGAGAAUUAAACUCAGAAGGCCAUGUGUAUG [Ex FMN B 4] | 296 nM | 149 nM | 164 nM | 181 nM | 163 nM
